From the Immune Epitope Database (IEDB)
pIC50: −log10 of the molar value.

target: HLA-A*02:01; assay: IEDB peptide-MHC binding, purified MHC/competitive/radioactivity; ≥ and ≤ were set here for values at or beyond the usual limits of such assays; settings: source organism: Bordetella pertussis

Sequence | pIC50
ITSYVGFSV | 5.36
IVVEAGELV | 5.01
RLRKMLYLI | 4.83
WVMTDNSNV | 4.53

target: HLA-B*07:02; assay: as above; settings: source organism: Bordetella pertussis

Sequence | pIC50
CFGKDLKRP | 4.16
GIVIPPKAL | 4.16
LAAGAGLTL | 5.13
RPQITDAVT | 4.79
RTHGVGASL | 5.80

target: HLA-B*35:01; assay: as above; settings: source organism: Bordetella pertussis

Sequence | pIC50
APNALAWAL | 5.20
LFTQQGGAY | 4.16
PDAHVPFCF | 4.16

target: HLA-B*44:03; assay: as above; settings: source organism: Bordetella pertussis

Sequence | pIC50
GELMAAQVA | 6.24
MESNKDIVI | 5.00

target: HLA-B*53:01; assay: as above; settings: source organism: Bordetella pertussis

Sequence | pIC50
LAAGAGLTL | 4.23
VPVSEHCTV | 4.16
